Experimental data as given in the supplement of paper PMC12667976.
± gives the standard error.

B1: library; numbered along this chain (parent)
chain: MATDAALRRLLRLHRTEIAVAVDSAFPLLHALADHDVVPEDKFQETLHLKEKEGCPQAFHALLSWLLTQDSTAILDFWRVLFKDYNLERYGRLQPILDSFPKDVDLSQPRKGRKPPAVPKALVPPPRLPTKRKASEEARAAAPAALTPRGTASPGSQLKAKPPKKPESSAEQQRLPLGNGIQTMSASVQRAVAMSSGDVPGARGAVEGILIQQVFESGGSKKCIQVGGEFYTPSKFEDSGSGKNKARSSSGPKPLVRAKGAQGAAPGGGEARLGQQGSVPAPLALPSDPQLHQKNEDECAVCRDGGELICCDGCPRAFHLACLSPPLREIPSGTWRCSSCLQATVQEVQPRAEEPRPQEPPVETPLPPGLRSAGEEVRGPPGEPLAGMDTTLVYKHLPAPPSAAPLPGLDSSALHPLLCVGPEGQQNLAPGARCGVCGDGTDVLRCTHCAAAFHWRCHFPAGTSRPGTGLRCRSCSGDVTPAPVEGVLAPSPARLAPGPAKDDTASHEPALHRDDLESLLSEHTFDGILQWAIQSMARPAAPFPS

Variants of: B1
Experiment: AIRE transcriptional activation functional score (insulin promoter-GFP; nonsense median 0, synonymous median 1) (normalised score); higher = higher AIRE activity (more reporter activation)
Details: with insulin promoter-GFP reporter in HEK293
Experimental: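 Deep mutational scan of full-length human AIRE (codon-optimized cDNA, DT-POPCode NNN libraries over three regions) integrated at a Bxb1 landing pad in HEK293 cells carrying an insulin core promoter-GFP reporter at a Flp-In site. Cells were sorted for the top 10% GFP about 14 days after transfection. Variant frequency log-ratios (select vs non-select, TileSeq) were rescaled so that the nonsense median is 0 and the synonymous median is 1, then averaged over biological replicates.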

| Variant | AIRE transcriptional activation functional score |
| --- | --- |
| R316W | 1.28 ± 0.018 |
| A193L | 0.279 ± 0.17 |
| A193W | -1.35 ± 0.22 |
| A493E | 0.985 ± 0.1 |
| A493R | 1.15 ± 0.12 |
| R79Q | 0.112 ± 0.35 |
| A317S | 0.689 ± 0.22 |
| R378D | 0.631 ± 0.13 |
| K259P | 0.82 ± 0.18 |
| K259T | 0.966 ± 0.32 |
| P430T | 0.77 ± 0.24 |
| L418I | 0.6 ± 0.24 |
| A264R | 1.05 ± 0.3 |
| L62C | 0.584 ± 0.15 |
| L62W | 0.305 ± 0.099 |
| N427I | 1 ± 0.25 |
| E88S | 0.402 ± 0.96 |
| P176Y | 1.88 ± 0.23 |
| E363M | 1.7 ± 0.028 |
| L158P | 0.723 ± 0.55 |
| V484R | 0.893 ± 0.069 |

| Variant | AIRE transcriptional activation functional score |
| --- | --- |
| V484A | 0.726 ± 0.16 |
| R303E | 0.933 ± 0.23 |
| L66W | 0.0325 ± 0.056 |
| S168L | 0.825 ± 0.32 |
| R471H | 1.03 ± 0.1 |
| S107V | 1 ± 0.57 |
| P200M | 1.52 ± 0.087 |
| L323C | 0.656 ± 0.52 |
| A138I | 1.06 ± 0.48 |
| V362Q | 1.16 ± 0.28 |
| K52F | 0.16 ± 0.23 |
| K42P | -0.0735 ± 0.34 |
| E354T | 0.99 ± 0.2 |
| V206E | 0.273 ± 0.073 |
| G227N | 0.587 ± 0.32 |
| C314Y | 0.725 ± 0.11 |
| D198S | 1.19 ± 0.26 |
| A246Q | -0.0407 ± 0.11 |
| A246G | 0.693 ± 0.25 |
| S476Q | 0.151 ± 0.11 |
| T364M | 1.64 ± 0.12 |

| Variant | AIRE transcriptional activation functional score |
| --- | --- |
| S338Y | 1.11 ± 0.13 |
| F459D | 0.929 ± 0.076 |
| F459L | 0.464 ± 0.23 |
| P254R | 0.606 ± 0.37 |
| P254Y | 1.28 ± 0.062 |
| V443C | 1.15 ± 0.15 |
| V443F | 0.581 ± 0.22 |
| A541Y | 0.977 ± 0.18 |
| F59R | -0.191 ± 0.58 |
| F59K | 0.387 ± 0.09 |
| R127H | 0.326 ± 0.35 |
| L255T | 0.506 ± 0.39 |
| G438R | 1.1 ± 0.31 |
| A25V | 1.01 ± 0.52 |
| A152M | 1.86 ± 0.072 |
| R9E | -0.057 ± 0.29 |
| L444Q | 0.642 ± 0.092 |
| L444Y | 0.814 ± 0.26 |
| G469T | 0.687 ± 0.22 |
| D439F | -0.443 ± 0.34 |
| I330C | 0.866 ± 0.3 |

| Variant | AIRE transcriptional activation functional score |
| --- | --- |
| I330S | 0.814 ± 0.31 |
| I330F | 0.831 ± 0.17 |
| Q262C | 0.939 ± 0.13 |
| Q262W | 1.26 ± 0.043 |
| G467A | 0.947 ± 0.23 |
| G467S | 1.06 ± 0.13 |
| I533D | 0.569 ± 0.14 |
| W335G | 1.27 ± 0.12 |
| I18V | -0.092 ± 0.32 |
| I18Q | -0.126 ± 0.07 |
| R328C | 0.932 ± 0.48 |
| I211A | -0.0822 ± 0.079 |
| H35I | 0.107 ± 0.2 |
| D84G | 0.841 ± 0.47 |
| Q534F | 0.205 ± 0.19 |
| C472S | -0.0588 ± 0.17 |
| C472V | 0.0438 ± 0.1 |
| G155V | 0.534 ± 0.28 |
| Y90G | -0.388 ± 0.57 |
| Y90F | 0.00136 ± 0.15 |
